The supplement of paper PMC9170038

Test system: MS2 coat protein
Experiment: apparent KD of MS2 coat protein; designed switch direction (-1 OFF switch, 1 ON switch): -1; higher = weaker reporter binding
Conditions: Eterna round: R98
Protocol: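 RNA-MaP: designed FMN/MS2 RNA switches (84 nt design region) are transcribed on-chip within common flanks and titrated with SNAP-549-labelled MS2 coat protein (about 1-3000 nM) in 100 mM Tris pH 7.5, 80 mM KCl, 4 mM MgCl2, without or with 200 uM FMN. Median apparent KD per design; activation ratio = KD,OFF / KD,ON.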

Sequence | apparent KD of MS2 coat protein (input ligand: FMN 200 uM) | apparent KD of MS2 coat protein (input ligand: none)
AAUAUAAGAGCUGGAAAUAAACUCACAUGAGGAUCACCCAUGUAGGAUAUCAGCACGAUAAGUGCUGAGAAGGACAUCCAGCUC [Denovo 56] | 14.7 nM | 16.4 nM
AAUAUGAGCUGGAAUAUAAAACUCACAUGAGGAUCACCCAUGUAGGAUAUCAGCACGAUAAGUGCUGAGAAGGACAACCAGCUC [Denovo 31] | 15.1 nM | 16.8 nM
GCACUGGAUGUAGGAUAUCAGGACGAUAAGUCCUGAGAAGGACAUGAGGAUCACCCAUGUGCCAAAACCAGUGCAUAUAAUAUA [Denovo Exng1 33] | 16.9 nM | 12.5 nM
UCAUACAUGAGGAUCACCCAUGACAUGAGGAUCACCCAUGUGCAGGAUAUACGUGAUAUAAUAUAGUAGAAGGGCAGACCAUAA [LRO005_Exclusion NG 3] | 59.1 nM | 40.6 nM
UGUUGUUACGCAGGAUAUUGCCAACAGGCGGUAGGAUAUCCGAAAGGAGAAGGACCGCCAACAGGCGAGAAGGGCGGGUUAACA [pwkr exNG2 2xF7 2FMN.10.1] | 37 nM | 35.2 nM
